# Laboratory results reported in US6132722A, “Recombinant antibody-enzyme fusion proteins” (Bristol-Myers Squibb Company, priority 1998, dated 2000).
# Legend:
# [1] = Tissue distribution of immunoconjugates in nude mice bearing s.c. 3677 melanoma xenografts; type: in vivo
# Procedure: Conjugate Localization. Subcutaneous 3677 melanoma tumors were established in female athymic nu/nu mice (8-12 weeks old, Harlan Sprague-Dawley, Indianapolis, Ind.) by transplanting tumors that had been previously passaged as previously described (Kerr et al., Cancer Res., 55:3558-3563 (1995)). Tumor bearing mice were injected i.v. with L49-sFv-bL (1 or 4 mg mAb component/kg) or with L49-Fab'-bL (1.8 mg mAb component/kg). At various time intervals, the mice were anesthetized, bled through the orbital plexus, and sacrificed. Tissues were removed and homogenized in PBS containing 15 μg/ml aprotinin (2 mL/g tissue). To the homogenate was added 50 mM sodium phosphate containing 100 mM NaCl at pH 11.2 (10 ml/g tissue), and the suspension was mixed. After 20 min at room temperature, 3M sodium phosphate at pH 7.0 was added (2 ml/g tissue), and the mixture was mixed and centrifuged.
# Quantification of conjugate concentrations was accomplished using a direct enzyme immunoassay. Polystyrene 96-well microtiter plates were coated with an affinity-purified rabbit polyclonal antisera to wild type E. cloacae bL (1 μg/ml), and were then blocked with specimen diluent (Genetic Systems Corp.). Serially diluted tissue extracts or purified samples (L49-sFv-bL as a standard for the fusion protein samples, L49-Fab'-bL as a standard for the L49-Fab'-bL samples) were added to the wells and allowed to bind for 3 h at room temperature. The plates were washed and developed by the addition of 0.1 ml of nitrocefin (O'Callaghan et al., Antimicrobial Agents and Chemotherapy, 1:283-288 (1972)) at 0.1 mM in PBS containing 1% dimethylformamide. Absorbance measurements were read in an ELISA plate reader using a 490 nm filter with 630 nm as the reference wavelength.
# In Vivo Localization. Biodistribution studies of L49-sFv-bL and L49-Fab'-bL were carried out in nude mice bearing subcutaneous (s.c.) 3677 melanoma tumor xenografts. The conjugates were injected i.v., and at various time points tissues were removed and extracted under alkaline conditions to disrupt antigen-antibody interactions. The samples were then trapped a polyclonal antiserum to bL, and bL activity was measured using nitrocefin as a colorimetric indicator (O'Callaghan et al, Antimicrobial Agents and Chemotherapy, 1:283-288 (1972)).
# [2] = tested on: cell-surface antigens on SK-MEL 28 melanoma cells; assay: Fluorescence activated cell sorting competition binding assay against FITC-modified whole L49; parameters: species or system human; conditions: FACS competition assay
# Procedure: FIG. 7 depicts a competition binding assay. 3677 cells were incubated with various combinations of the test samples (L49, L49-sFv-bL, L49-Fab'-bL, and FITC-modified whole L49, keeping the total mAb concentration (test sample+L49-FITC) constant at 400 nM. Fluorescence intensity was determined by fluorescence activated cell sorter analysis.
# Competition binding experiments were performed as described by Svensson et al.(Bioconjugate Chem., 3:176-181 (1992)). Immunoassays were performed by coating polystyrene 96 well plates with sp97 (0.1 mL, 2 μg/ml in PBS, overnight, 4° C.) After blocking with specimen diluent (Genetic Systems Corp.) for 1 h at 22° C., the blocking solution was replaced with fresh specimen diluent (0.1 ml) containing serial dilutions of the samples. After 1 h at 22° C. the plates were washed, followed by development with 0.1 mL of a nitrocefin (O'Callaghan et al., Antimicrobial Agents and Chemotherapy, 1:283-288 (1972)) solution (0.1 mM in PBS/1% dimethylformamide, 15 min, 22° C. Absorbance measurements were read in an plate reader using a 490 nm filter with 630 nm as the reference wavelength.
# The binding characteristics of the sFv portion of the fusion protein were determined using a fluorescent activated cell sorting competition assay in which fusion protein and FITC-modified whole L49 competed for binding to cell-surface antigens on SK-MEL 28 melanoma cells. […]
molecule,measurement,setting,value
"L49-sFv-bL: recombinant fusion protein: L49 anti-p97 single-chain Fv (VH-218 linker-VL) fused to r2-1 mutant E. cloacae β-lactamase, SEQ ID NO: 20 (protein) MKYLLPTAAAGLLLLAAQPAMAEVQLQESGPSLVKPSQTLSLTCSVTGDSITSGYWNWIRKFPGNKLEYMGYISDSGITYYNPSLKSRISITRDTSKNQYYLQLNFVTAEDTATYNCARRTLATYYAMDYWGQGTSVTVSSGSTSGSGKPGSGEGSTKGDFVMTQTPLSLPVSLGDQASISCRASQSLVHSNGNTYLHWYLQKPGQSPKLLIYRVSNRFSGVPDRFSGSGSGTDFTLKISRVEAEDLGVYFCSQSTHVPPTFGGGTKLEIKRTPVSEKQLAEVVANTITPLMKAQSVPGMAVAVIYQGKPHYYTFGKADIAANKPVTPQTLFELGSISKTFTGVLGGDAIARGEISLDDAVTRYWPQLTGKQWQGIRMLDLATYTAGGLPLQVPDEVTDNASLLRFYQNWQPQWKPGTTRLYANASIGLFGALAVKPSGMPYEQAMTTRVLKPLKLDHTWINVPKAEEAHYAWGYRDGKAVRVSPGMLDAQAYGVKTNVQDMANWVMANMAPENVADASLKQGIALAQSRYWRIGSMYQGLGWEMLNWPVEANTVVETSFGNVALAPLPVAEVNPPAPPVKASWVHKTGSTGGFGSYVAFIPEKQIGIVMLANTSYPNPARVEAAYHILEALQTSEFE",tumor/tissue ratios Blood,"[1]; 1 mg/kg i.v., 4 hrs",13
same,tumor/tissue ratios Kidney,"[1]; 1 mg/kg i.v., 4 hrs",41
same,tumor/tissue ratios Liver,"[1]; 1 mg/kg i.v., 4 hrs",52
same,tumor/tissue ratios Spleen,"[1]; 1 mg/kg i.v., 4 hrs",79
same,tumor/tissue ratios Tumor,"[1]; 1 mg/kg i.v., 4 hrs",1
same,tumor/tissue ratios Blood,"[1]; 1 mg/kg i.v., 12 hrs",66
same,tumor/tissue ratios Kidney,"[1]; 1 mg/kg i.v., 12 hrs",> 177
same,tumor/tissue ratios Liver,"[1]; 1 mg/kg i.v., 12 hrs",> 177
same,tumor/tissue ratios Spleen,"[1]; 1 mg/kg i.v., 12 hrs",> 177
same,tumor/tissue ratios Tumor,"[1]; 1 mg/kg i.v., 12 hrs",1
same,tumor/tissue ratios Blood,"[1]; 1 mg/kg i.v., 24 hrs",105
same,tumor/tissue ratios Kidney,"[1]; 1 mg/kg i.v., 24 hrs",> 70
same,tumor/tissue ratios Liver,"[1]; 1 mg/kg i.v., 24 hrs",> 70
same,tumor/tissue ratios Spleen,"[1]; 1 mg/kg i.v., 24 hrs",> 70
same,tumor/tissue ratios Tumor,"[1]; 1 mg/kg i.v., 24 hrs",1
same,tumor/tissue ratios Blood,"[1]; 4 mg/kg i.v., 12 hrs",81
same,tumor/tissue ratios Kidney,"[1]; 4 mg/kg i.v., 12 hrs",> 240
same,tumor/tissue ratios Liver,"[1]; 4 mg/kg i.v., 12 hrs",> 240
same,tumor/tissue ratios Spleen,"[1]; 4 mg/kg i.v., 12 hrs",> 240
same,tumor/tissue ratios Tumor,"[1]; 4 mg/kg i.v., 12 hrs",1
same,tumor/tissue ratios Blood,"[1]; 4 mg/kg i.v., 24 hrs",141
same,tumor/tissue ratios Kidney,"[1]; 4 mg/kg i.v., 24 hrs",> 290
same,tumor/tissue ratios Liver,"[1]; 4 mg/kg i.v., 24 hrs",> 290
same,tumor/tissue ratios Spleen,"[1]; 4 mg/kg i.v., 24 hrs",> 290
same,tumor/tissue ratios Tumor,"[1]; 4 mg/kg i.v., 24 hrs",1
same,tumor/tissue ratios Blood,"[1]; 4 mg/kg i.v., 48 hrs",150
same,tumor/tissue ratios Tumor,"[1]; 4 mg/kg i.v., 48 hrs",1
same,tumor to blood ratios,"[1]; 4 mg/kg, 24-48 h after the conjugate was administered",141-151
same,binding to the cell line in competition with FITC-modified whole L49,[2],bound equally well
